Experimental data: PMC5485662 (Nature medicine, 2016)

Key:
[1] = target: HA ectodomain of wild-type A/California/07/2009 (pdm2009) (Influenza A virus A/California/07/2009 …); assay: BLI
HA of A/USSR/92/1977 [2] = target: T1, HA of A/USSR/92/1977 (Influenza A virus A/USSR/92/1977 …, UniProt P03453, strain); assay: cell-based or functional assay
HA of A/USSR/92/1977 [3] = target: T1, HA of A/USSR/92/1977; assay: BLI

Binder	Kd [1]	IC50 of neutralisation (microneutralization, MDCK cells) of A/USSR/92/1977 virus (HA of A/USSR/92/1977 [2])	Kd (HA of A/USSR/92/1977 [3])
Fab of antibody D1 H1–53 (donor 1, 2011–12 cohort) (Fab, V domains shown) VH: QVQLQESGPGLVKPSETLSLTCTVSGGSITNYFWSWIRQPPGKGLEWIGYISYSGSTNHNPSLKSRVTMSLDTSKKQFSLKLSSVTAADMAVYFCARGERFGESPYYSYHMDVWGQGTTVTVSS VL: not shown	> 100 µM		
Fab of inferred intermediate I-2 of lineage CL6515 (Fab, V domains shown) VH: EVQLVQSGAEVKKPGESLKISCKGSGYSFTSYWIGWVRQMPGKGLEWMGIIYPGDSDTRYSPSFQGQVTISADKSISTAYLQWSSLKASDTAMYYCARVVADREGFGYYYGMDVWGQGTTVTVSS VL: EIVLTQSPGTLSLSPGERATLSCRASQSVDSSSLAWYQQKPGQAPRLLIYAASSRATGIPDRFSGSGSGTDFTLTISRLEPEDFAVYYCQQCGSSPWTFGQGTKVEIK		0.012 µg/mL	1.9 µM
 (Fab, V domains shown) VH: EVQLVQSGAEVKKPGESLKISCKGSGYSFTSYWIGWVRQMPGKGLEWMGIIYPGDSDTRYSPSFQGQVTISADKSISTAYLQWSSLKASDTAMYYCARVVADREGFGYYYGMDVWGQGTTVTVSS VL: not shown	> 50 µM		
Fab of antibody D1 H1–2 (donor 1, 2011–12 cohort) (Fab, V domains shown) VH: QVQLQESGPGLVKPSETLSLRCAVSGSSISSLFYWGWIRQPPGKGPEWIGSIYHSGSTYYNPSLKSRVTISVDASKTQFSLNLNSVTAADTAVYYCAREYRILDERSNYFDAWGQGSPVTVSS VL: SYELTQPPSVSVSPGQTVSITCSGDKMGDKYASWYQQKPGQSPFLVIYQDNKRPSGIPERFSGSNSGNTATLTISGTQAMDEADYYCQTWDISSGVVFGGGTKL	> 100 µM		
Fab of antibody D1 H1–12 (donor 1, 2011–12 cohort) (Fab, V domains shown) VH: QVQLQESGPGLVKPSETLSLTCSVSGGSLNTYYWSWIRQPPGKGLEWIGYIYYSGNTNYNPSLKSRVAISVDTSKNQFSLKLTSVTAADTAVYYCARLYMVRGELWGFYFDHWGQGTLVTVSS VL: QSVLTQPASVSGSPGQSITISCTGTSSDVGSYNLVSWYQHHPGKAPKLMIYEDIERPSGVSNRFSGSKSGNTASLTISGLQAEDEGDYYCCSYAGSSTSWVFGGGTKLTVL	> 100 µM		
